Source: IntAct's records for PubMed 21703451

B1: Transient receptor potential protein (Drosophila melanogaster (Fruit fly)), P19334 (parent)
chain: MGSNTESDAEKALGSRLDYDLMMAEEYILSDVEKNFILSCERGDLPGVKKILEEYQGTDKFNINCTDPMNRSALISAIENENFDLMVILLEHNIEVGDALLHAISEEYVEAVEELLQWEETNHKEGQPYSWEAVDRSKSTFTVDITPLILAAHRNNYEILKILLDRGATLPMPHDVKCGCDECVTSQMTDSLRHSQSRINAYRALSASSLIALSSRDPVLTAFQLSWELKRLQAMESEFRAEYTEMRQMVQDFGTSLLDHARTSMELEVMLNFNHEPSHDIWCLGQRQTLERLKLAIRYKQKTFVAHPNVQQLLAAIWYDGLPGFRRKQASQQLMDVVKLGCSFPIYSLKYILAPDSEGAKFMRKPFVKFITHSCSYMFFLMLLGAASLRVVQITFELLAFPWMLTMLEDWRKHERGSLPGPIELAIITYIMALIFEELKSLYSDGLFEYIMDLWNIVDYISNMFYVTWILCRATAWVIVHRDLWFRGIDPYFPREHWHPFDPMLLSEGAFAAGMVFSYLKLVHIFSINPHLGPLQVSLGRMIIDIIKFFFIYTLVLFAFGCGLNQLLWYYAELEKNKCYHLHPDVADFDDQEKACTIWRRFSNLFETSQSLFWASFGLVDLVSFDLAGIKSFTRFWALLMFGSYSVINIIVLLNMLIAMMSNSYQIISERADTEWKFARSQLWMSYFEDGGTIPPPFNLCPNMKMLRKTLGRKRPSRTKSFMRKSMERAQTLHDKVMKLLVRRYITAEQRRRDDYGITEDDIIEVRQDISSLRFELLEIFTNNNWDVPDIEKKSQGVARTTKGKVMERRILKDFQIGFVENLKQEMSESESGRDIFSSLAKVIGRKKTQKGDKDWNAIARKNTFASDPIGSKRSSMQRHSQRSLRRKIIEQANEGLQMNQTQLIEFNPNLGDVTRATRVAYVKFMRKKMAADEVSLADDEGAPNGEGEKKPLDASGSKKSITSGGTGGGASMLAAAALRASVKNVDEKSGADGKPGTMGKPTDDKKAGDDKDKQQPPKDSKPSAGGPKPGDQKPTPGAGAPKPQAAGTISKPGESQKKDAPAPPTKPGDTKPAAPKPGESAKPEAAAKKEESSKTEASKPAATNGAAKSAAPSAPSDAKPDSKLKPGAAGAPEATKATNGASKPDEKKSGPEEPKKAAGDSKPGDDAKDKDKKPGDDKDKKPGDDKDKKPADNNDKKPADDKDKKPGDDKDKKPGDDKDKKPSDDKDKKPADDKDKKPAAAPLKPAIKVGQSSAAAGGERGKSTVTGRMISGWL

Variants of: B1
Details: with inad_drome inaD

Row | Variant | effect of a mutation on the interaction
1 | V1266A | decreasing interaction
2 | V1266A;W1274A | disrupting interaction
